# Measured values reported in patent US20260097113A1 (Pfizer, published 2026).
# How the values were obtained:
# [1] = target: RSV A + RSV B bivalent composition (RSV subtype A; RSV subtype B); test: AM14 Fab titration by SEC; composition of Table 17; Pre-lyo Prep 1, T0 (second value)
# [2] = target: RSV A + RSV B bivalent composition (RSV subtype A; RSV subtype B); test: AM14 Fab titration by SEC; High-Slow 2 cycle; T0 (second value)
# [3] = target: RSV A + RSV B bivalent composition (RSV subtype A; RSV subtype B); test: AM14 Fab titration by SEC; High-Slow 2 cycle; 1 M 25°C (second value)
# [4] = target: RSV A + RSV B bivalent composition (RSV subtype A; RSV subtype B); test: AM14 Fab titration by SEC; Low-Fast cycle; 3 M 2-8°C (second value)
# [5] = target: RSV A + RSV B bivalent composition (RSV subtype A; RSV subtype B); test: AM14 Fab titration by SEC; Target cycle; 8 M 40°C
# [6] = target: RSV A + RSV B bivalent composition (RSV subtype A; RSV subtype B); test: AM14 Fab titration by SEC; Target cycle; T0
# [7] = target: T1, RSV F protein of subtype A comprising a polypeptide of SEQ ID NO: 1 and a polypeptide of SEQ ID NO: 2 (RSV subtype A, UniProt P11209 137-513; P03420 26-109); test: AM14 ELISA; F4 (pH 6, 50 mM NaCl, 4.5% sucrose); 2 wk 25°C
# T1 construct: Stabilized prefusion F trimer made of three F2-F1 heterodimers; Produced recombinantly in CHO cells; also called RSV A; RSVA
# T1 chain 1: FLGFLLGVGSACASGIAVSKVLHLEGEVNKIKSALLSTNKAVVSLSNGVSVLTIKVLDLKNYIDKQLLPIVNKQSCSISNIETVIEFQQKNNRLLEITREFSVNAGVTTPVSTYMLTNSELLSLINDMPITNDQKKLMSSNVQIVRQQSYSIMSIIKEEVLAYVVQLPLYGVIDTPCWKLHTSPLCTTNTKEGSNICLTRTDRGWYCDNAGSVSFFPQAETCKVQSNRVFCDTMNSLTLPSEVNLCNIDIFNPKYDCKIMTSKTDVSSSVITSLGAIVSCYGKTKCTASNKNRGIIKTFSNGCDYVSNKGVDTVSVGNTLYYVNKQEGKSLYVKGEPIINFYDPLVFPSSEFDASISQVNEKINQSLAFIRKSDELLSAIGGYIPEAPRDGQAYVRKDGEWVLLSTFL
# T1 chain 2: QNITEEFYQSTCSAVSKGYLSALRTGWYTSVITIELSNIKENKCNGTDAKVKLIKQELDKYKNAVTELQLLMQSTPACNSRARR
# [8] = target: T1, RSV F protein of subtype A comprising a …; test: AM14 ELISA; F9 (pH 8, 50 mM NaCl, 4.5% sucrose); 2 wk 25°C
# [9] = target: T1, RSV F protein of subtype A comprising a …; test: AM14 ELISA; F12 (pH 8, 100 mM NaCl, 9.0% sucrose); 1 wk 25°C
# [10] = target: T1, RSV F protein of subtype A comprising a …; test: AM14 ELISA; F19 (pH 7, 50 mM NaCl, 3% trehalose + 3% mannitol); 2 wk 25°C
# [11] = target: T2, RSV F protein comprising a polypeptide of SEQ ID NO: 3 and a polypeptide of SEQ ID NO: 4 (RSV subtype B, UniProt O36634 137-513; O36634 26-109); test: AM14 prefusion assay relative to standard; RSV B 480 µg/mL, 2% sucrose + 4% mannitol; post-lyo T0
# T2 construct: also called RSV B; RSVB
# T2 chain 1: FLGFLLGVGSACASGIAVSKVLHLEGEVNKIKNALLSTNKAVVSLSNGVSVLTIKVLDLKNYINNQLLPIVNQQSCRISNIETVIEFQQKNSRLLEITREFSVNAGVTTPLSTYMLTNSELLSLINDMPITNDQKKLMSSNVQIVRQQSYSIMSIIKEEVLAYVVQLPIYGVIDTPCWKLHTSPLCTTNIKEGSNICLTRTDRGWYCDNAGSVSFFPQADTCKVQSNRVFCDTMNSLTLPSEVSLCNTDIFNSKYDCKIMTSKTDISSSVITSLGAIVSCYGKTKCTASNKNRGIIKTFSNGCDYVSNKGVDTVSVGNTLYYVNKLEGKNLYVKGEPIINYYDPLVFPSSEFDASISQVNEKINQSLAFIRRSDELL
# T2 chain 2: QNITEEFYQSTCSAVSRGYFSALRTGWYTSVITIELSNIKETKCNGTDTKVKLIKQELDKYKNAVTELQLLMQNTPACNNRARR
# [12] = target: T1, RSV F protein of subtype A comprising a …; test: AM14 ELISA; F17 (pH 7, 50 mM NaCl, 4.5% trehalose); 1 wk 5°C
# [13] = target: T1, RSV F protein of subtype A comprising a …; test: AM14 ELISA; F7 (pH 6, 100 mM NaCl, 0% sucrose); 2 wk 25°C
# [14] = target: T1, RSV F protein of subtype A comprising a …; test: AM14 ELISA; F15 (pH 6, 0 mM NaCl, 9% sucrose); T0
molecule,measurement,setting,value
AM14 Fab,Prefusion Content (%),[1],84%
same,Prefusion Content (%),[2],73%
same,Prefusion Content (%),[3],59%
same,Prefusion Content (%),[4],59%
same,Prefusion Content (%),[5],67%
same,Prefusion Content (%),[6],68%
"AM14 (trimeric prefusion specific antibody of the AM14 ELISA) (antibody, V domains shown, Antibody as used in the AM14 ELISA, detected with an HRP-labeled secondary antibody) VH: EVQLVESGGGVVQPGRSLRLSCAASGFSFSHYAMHWVRQAPGKGLEWVAVISYDGENTYYADSVKGRFSISRDNSKNTVSLQMNSLRPEDTALYYCARDRIVDDYYYYGMDVWGQGATVTVSS VL: DIQMTQSPSSLSASVGDRVTITCQASQDIKKYLNWYHQKPGKVPELLMHDASNLETGVPSRFSGRGSGTDFTLTISSLQPEDIGTYYCQQYDNLPPLTFGGGTKVEIKR","AM14 prefusion content (%), relative to standard",[7],86%
same,"AM14 prefusion content (%), relative to standard",[8],60%
same,"AM14 prefusion content (%), relative to standard",[9],82%
same,"AM14 prefusion content (%), relative to standard",[10],84%
same,"AM14 prefusion content (%), relative to standard",[11],82%
same,"AM14 prefusion content (%), relative to standard",[12],59%
same,"AM14 prefusion content (%), relative to standard",[13],55%
same,"AM14 prefusion content (%), relative to standard",[14],106%
